The results in this text go back to the DeepSol protein solubility set.

The nature of this series: soluble on expression in E. coli; label from the status in PepcDB or PDB records.
Take “ATAVNGAPRDAALWSSHEQMLAQPLKDSDAEVYDIIKKESNRQRVGLELIASENFASRAVLEALGSCLNNKYSEGYPGQRYYGGTEHIDELETLCQKRALQAYGLDPQCWGVNVQPYSGSPANFAVYTALVEPHGRIMGLDLPDGGHLTHGFMTDKKKISATSIFFESMAYKVNPDTGYIDYDRLEENARLFHPKLIIAGTSCYSRNLDYGRLRKIADENGAYLMADMAHISGLVVAGVVPSPFEHCHVVTTTTHKTLRGCRAGMIFYRRGVRSVDPKTGKEILYNLESLINSAVFPGLQGGPHNHAIAGVAVALKQAMTPEFKEYQRQVVANCRALSAALVELGYKIVTGGSDNHLILVDLRSKGTDGGRAEKVLEACSIACNKNTCPGDKSALRPSGLRLGTPALTSRGLLEKDFQKVAHFIHRGIELTVQIQDDTGPRATLKEFKEKLAGDEKHQRAVRALRQEVESFAALFPLPGLPGF”: the “soluble on expression in E. coli” value was “soluble”.

“MGTIPASTYYPTHFMRGTQLNVANGNIKKVEDLSSDDFLRCAAESDDVIVNASVIKSIKSTAGSVTIIFETGIEKQLIPLKCQVEHPFFVLGKGWCSCNPRKSGENYGLDCEILQVDDVCIVLTRNEDKITDCAVDIVTAERDLELFSQRAALKEQLVDVYYERVSGRVSAPPERVLVTFSNEHRERRISE”: the “soluble on expression in E. coli” value is recorded as “not soluble”. The entry for “MGHHHHHHSHMNVVKASPQSALLLYISELIQEKNPMNAMNVVKPSARKYASYNMRDVIQERLPLYVPSAENPIHTNMASLPIREFTQERNLMSAMNVERPSPQSQYSMYIKERIQERGRMDAVIVRKPSPTYQTLSNIRKCTQEKWVESVKLKTPVMESHSSFLISELMQKKTLLVP” is “not soluble”. For the sequence “SSSIKVECVIKEKNEVGESPVWEEKDSSLLYVDITGQKVSRWSSLTKQIESMNTEKLVGCVVPRQAGGYVIAEGTRFAFVDWVKRSITAVAEVNEKPNTRFNDGKVDPAGRFFAGTMSMDMKPDVVDAALYNLQPDHSVVRHFDQVHLSNGLDWSLDHRVFYYIDSLAFMVEAFDYDIQTGGLSNRRTVYKMEKDEGIPDGMCIDTEGKLWVACFNGGRVLRIDPQTGKRLQTVKLPAERITSCCFGGKDYSDLYITSAYIGMDAEALAKQPEAGCTFKVTGLGVKGIPPYSYTG”, the “soluble on expression in E. coli” value is given as “soluble”. The entry for “GHMSSTPSNQNIIPIIKKESIVSLFEKGIRQDGRKLTDYRPLSITLDYAKKADGSALVKLGTTMVLAGTKLEIDKPYEDTPNQGNLIVNVELLPLAYETFEPGPPDENAIELARVVDRSLRDSKALDLTKLVIEPGKSVWTVWLDVYVLDYGGNVLDACTLASVAALYNTKVYKVEQHSNGISVNKNEVVGKLPLNYPVVTISVAKVDKYLVVDPDLDEESIMDAKISFSYTPDLKIVGIQKSGKGSMSLQDIDQAENTARSTAVKLLEELKKHLGI” is “soluble”; for “GSTSAKRIQKELAEITLDPPPNCSAGPKGDNIYEWRSTILGPPGSVYEGGVFFLDITFSPDYPFKPPKVTFRTRIYHCNINSQGVICLDILKDNWSPALTISKVLLSICSLLTDCNPADPLVGSIATQYMTNRAEHDRMARQWTKRYAT” it is “soluble”; for “MRAPFISSLVKTLVHTDYDTSTGEVRSRRATGFVVGLTGEWGLGKSSVLNLLEHDLKQMEHVAVATLNPWLFKGRDEVVEAYFNALREALGFSSSEKARKLLVHLARYKASIEFVGATTAVVIDFVVGTGSATAIWKKWVLKVVRFLSKSRGLSANEERKNLEAKLAEAKIAIVMLIDELDRVEDEEVRVVAQLVKAVGDIKGISYLVAYDPSRVAQALGKGSTPEEKQKAGESYLEKIIQFPIPLRPLFMDEARDLLLQAMRNNDVTMPAESQSYQTEILNQLLRVIRTPREIKRLIGAFAVLEEIVRGLEHHHHHH” it is “soluble”.

On to “MPLFKERNCSVSIVLDSRTRRKNAYEFPLSLRFTIDRKFFYLTVGSSFSEKKFSDICNATKCKSENYKLQKEWKDTFVPKYKKVLSNLNKGGILTFEMVRQCIIGEDVVLSEEETTKSQSFISIWEQVINGFKTDDGGARFTTAESYECALKSFRKILGANTIKGFCISAAEIQKWKDGMHNGVKDENGAVVGKISDTTVGIYLRCCRAVWNRCVHEGFLKDIPYPFSNKKEKGLVSIPKSAKRKQNFLNVAQMTELYNLFVSKEYPEHWTEEYTQRAHYSLGLFLAQYLCNGFNMADAGRLTYDNYYYKTDGKAFRFNRKKTSRRSADGSEVIVPIIPPLQYVLDEIAAPPTRDGFVFPDILKGAETEELRRKYTVQENSNVKDRVIKICHEALHWDKSICPSGTWCRHSFATNLHNAGVDMDYISESMGHASSDHAITQIYIEHYPLDIQMQNNSKLLNLGETSERDALLAKLANMSTEELAKLFA”, for which the “soluble on expression in E. coli” value was “not soluble”. Then “LNHETITKRTLLSSLMETNSLNYPNQVKLSERLAELYGASFGIGVSKKGNQHWFNISMNIVNDHYLQDSQVLAEAVDFLKEIIFAPNIQAGQFEAETFQREKENLKAYLESIVED”, with “not soluble”. The entry for “MMRGASKRSISSAAVLLIKKNKLPPRPKFTPEMEAQCTEKFLHGGRGPGGQKINKCNSKVQLRHEPTGIVVECQETRSREQNRKLARLKLARELAASYDTMPSREEALLQWHRQQKRSQRRRSVAKYEQREEAARVEKEEREARDREMVRELFRR” is “soluble”; for “MSQSKADYINVIGAGLAGSEAAYQIAKRGIPVKLYEMRGVKATPQHKTTNFAELVCSNSFRGDSLTNAVGLLKEEMRRLDSIIMRNGEAHRVPAGGAMAVDREGYAEAVTAEIESHPLIEVIRKEITEIPDDAITVIASGPLTSDALAEKIHELNGGDGFYFYDAAAPIVDKATIDMNKVYLKSRYDKGEAAYLNCPMTKEEFMAFYEALTTAEEAPLNSFEKEKYFEGCMPIEVMAKRGIKTMLYGPMKPVGLEYPEDYMGPRDGDFKTPYAVVQLRQDNAAGSLYNIVGFQTHLKWGEQKRVFQMIPGLENAEFVRYGVMHRNSYMDSPNLLKQTFQSKSNPNLFFAGQMTGVEGYVESAASGLVAGINAARLFKGEDEVIFPHTTAIGSLPYYVTHAESKHFQPMNVNFGIIKELEGPRIRDKKERYEKIAERSLKDLQTFIDALEHHHHHH” it is “soluble”; for “MDIVSVALQRYSTKAFDPSKKLTAEEADKIKTLLQYSPSSTNSQPWHFIVASTEEGKARVAKSAAGNYTFNERKMLDASHVVVFCAKTAMDDAWLERVVDQEDADGRFATPEAKAANDKGRRFFADMHRVSLKDDHQWMAKQVYLNVGNFLLGVAAMGLDAVPIEGFDAEVLDAEFGLKEKGYTSLVVVPVGHHSVEDFNAGLPKSRLPLETTLTEV” it is “not soluble”. For the sequence “GMFVQSALHQLKVAVDTSIQMLDQYTEIDLKIAPIQSKRSLFEMYAHLSLICHADLLILNGSTEKELHTFYKEQTPETIAQMQKTMIQGYDLLSKTFLSYSNEQLAEMKTAYWGISYSRFEWLLEIVAHFYHHRGQIHILLCEHMKDPNIPLFQ”, the “soluble on expression in E. coli” value is reported as “soluble”. The entry for “MGSDKIHHHHHHMSQHVLLNSIEHKDVKVMTHRSAALGDNLWYSVTFPQEFRSVQAHYPIFFHKDTATGQFYAVALFGFQQNDNVFLSDQGWSASYVPLTVRRQPFLIGQQTVLEDGVERQQRVIHVDLDHPRVSETEGEALFLPYGGNTPLLDEVGEILEVIHHGLQDGQRFVDALIEHQLLESFTLDIELDNGQKNQMIGFYTINEETLAGLSADALAKLHQQGYLQAIYMTLASQSNVRDLLNLKNAQG” is “not soluble”; for “MSIWCAVCNDLKPCEEATQLIPCLHTFCTKCLKKSTKKMRVCPVAHCYSSLTAPEPMTSTCEGENCQRKIMGNAEILRTACHHDICQHCYDLASRKEKSCCPALGCAELMIDEEDMICEGPCKKALVFDKTIVIPCCGARMCDVCGPKWTNGRDFCELGKCVNKESAKRRKSADATRQPCMGSLHCEGEVLRNFPSELECDHDVCIKCIGSMLDECEKNGKSPACPVKTCAIPYRCESVLALDAQFPEKKAFFSKFTLQAKFSMQTLKDDIVTNIIHGDLNTMNGQKFSLKIGQCDDDDGGMPMEFVREGTLGDLVRETRRVLKILPTDKIYGYYRIDDNKKSKLDVTKDTIRSSCSSLNINENTTVLVDTTGIVSRPKKQ” it is “not soluble”; for “MPKRTDIKSILILGAGPIVIGQACEFDYSGAQACKALREEGYRVILVNSNPATIMTDPEMADATYIEPIHWEVVRKIIEKERPDAVLPTMGGQTALNCALELERQGVLEEFGVTMIGATADAIDKAEDRRRFDVAMKKIGLETARSGIAHTMEEALAVAADVGFPCIIRPSFTMGGSGGGIAYNREEFEEICARGLDLSPTKELLIDESLIGWKEYEMEVVRDKNDNCIIVCSIENFDAMGIHTGDSITVAPAQTLTDKEYQIMRNASMAVLREIGVETGGSNVQFAVNPKNGRLIVIEMNPRVSRSSALASKATGFPIAKVAAKLAVGYTLDELMNDITGGRTPASFEPSIDYVVTKIPRFNFEKFAGANDRLTTQMKSVGEVMAIGRTQQESLQKALRGLEVGATGFDPKVSLDDPEALTKIRRELKDAGADRIWYIADAFRAGLSVDGVFNLTNIDRWFLVQIEELVRLEEKVAEVGITGLNADFLRQLKRKGFADARLAKLAGVREAEIRKLRDQYDLHPVYKRVDTCAAEFATDTAYMYSTYEEECEANPSTDREKIMVLGGGPNRIGQGIEFDYCCVHASLALREDGYETIMVNCNPETVSTDYDTSDRLYFEPVTLEDVLEIVRIEKPKGVIVQYGGQTPLKLARALEAAGVPVIGTSPDAIDRAEDRERFQHAVERLKLKQPANATVTAIEMAVEKAKEIGYPLVVRPSYVLGGRAMEIVYDEADLRRYFQTAVSVSNDAPVLLDHFLDDAVEVDVDAICDGEMVLIGGIMEHIEQAGVHSGDSACSLPAYTLSQEIQDVMRQQVQKLAFELQVRGLMNVQFAVKNNEVYLIEVNPRAARTVPFVSKATGVPLAKVAARVMAGKSLAEQGVTKEVIPPYYSVKEVVLPFNKFPGVDPLLGPEMRSTGEVMGVGRTFAEAFAKAQLGSNSTMKKHGRALLSVREGDKERVVDLAAKLLKQGFELDATHGTAIVLGEAGINPRLVNKVHEGRPHIQDRIKNGEYTYIINTTSGRRAIEDSRVIRRSALQYKVHYDTTLNGGFATAMALNADATEKVISVQEMHAQIK” it is “soluble”. The entry for “MRKPRITYLDVWANDERIGTLEKGAMYRFAYDNPNSSLLGLHYQDRSKVYISNNMPHIFAQYFPEGFLDAHITSKYAFHDAPFEDNEMLRLAILCRETLGRIHVRCNDPLFNEWIDGLEMKNPRILTERDLLGINARQVFQQYMAEIFHHGRFVSVSGIQQKMSLDAIRRNTKQTASYIAKGFDASEYPCLAANEFLCMQTIKQAGIAVAQTSLSEDSSVLLVRRFDVSEQGYFLGMEDFTSLRQYSVEDKYKGSYAAIAQIIRQISGRPDEDLIHFFNQLAASCILKNGDAHLKNFSVLYHDEYDVRLAPVYDVLDTSIYRVGTQGIFDAYDDTLALNLTNHGKKTYPSKNTLLDFAEKYCDLGREDASFMIDTIVQAKEQVLVKYSDVLRENEWLAQKWHFIPDENEEGLPFTFR” is “not soluble”; for “MGSDKIHHHHHHMNVLASKDFRTEKRPLPFECIALVLQGGGALGAYQAGVYEALAEADIHPDWVAGVSIGAINSAIIAGNEPTERVPKLRAFWREISANPLLDWAAASPALAPTGTLPRLLFNQFSAACALVAGAPGFFSLRQPVPWLQADGSLEGTSFYETKHLKSTLERLVDFDRINAGRMRFSVGAVNVRSGNFVYFDNDQHTIRPEHVMASGSLPPGFPAVEIDGEFYWDGGLISNTPLQWVVEHGARQDTLAFQVDLWSARGEFPRNLSEVATRQKEIQYASRSRAHTDQFKQYQRARHTLASLLSKLPPELLDSEEATALSSIADHKVYKLVHLTYRSKQHEGHSKDHEFSRLSMEEHWRAGYFDAVRTLRHPEALLRPDNLEGVSTYDLAEDGRE” it is “not soluble”.
